Test results: the DeepSol protein solubility set

Assay: soluble on expression in E. coli; label from the status in PepcDB or PDB records

Soluble on expression in E. coli, not soluble:
MGFEQLAELRDRLRAQAAQAKPAQTKSSAGRAKKREAVEPGVEAIWRLQRHFPLAFPKSPAAKVPLKQGILQDAQQHLELLGITAEQLKQAIATWCQGSRYWSCMVEDAPRLDLQGQVAGKVTAEQAVYARRQASRRQREQMREKRAKRAQAGGEAPAATEAPTPEAPATEASPEAN
MGSDKIHHHHHHMAAGRDTALLMMNLMNAPVPLSPALELALPVDTAVVGVGYFGSLHALCYSRLPGSRLQALIDPDPITQFLAEHLGVPWFPGVAELPSTIRAVSVATPVAMHFGLTRSLLQQGLDVLLEKPIAETAAQATELRMVAEANQCILQIGHIERFNPAYTAGGTLLPFARTVRSVRTTRHPPRSSALDVVIDLMIHDLDLILHSLDSSVVELRASGRSCGLTAIDEAEVELTFSNGCRVYLDAHWGRDTEQDARCMVAELENDETWVIDFRRRMTYRKEPGSSTGPLPADGHTLPFPMQRIQEDTLSLQLAAFLDACRNRSLPRVTPAEGNAALELAHCIRQQILRPCP
MTRIIASLSEVSAGYSALFCDLWGCLHDGKRPFAEAVEALRAFRARGGTVLLMTNAPRPKPSVVRQLESIGVPPDCYDEVTSSGDAAQYALVTGAVGRRVYHLGPQKDETFFTELSPDLQKVAATEAPIVRVPLEEAEGIVCTGLFDDLTETPEDYRATLLYAKTQGLKLLCANPDIVVDFGDKRIYCAGAIAEAYDAMGGQSLYFGKPHPPIYDLARRRLEALRPGVPADEILCVGDGIATDIRGAVAEGLDSLFITGGLAASVFGENGE
MAIKGLEQAVENLSRISRTAVPGAAAMAINRVASSAISQSASQVARETKVRRKLVKERARLKRATVKNPQARIKVNRGDLPVIKLGNARVVLSRRRRRKKGQRSSLKGGGSVLVVGNRRIPGAFIQQLKNGRWHVMQRVAGKNRYPIDVVKIPMAVPLTTAFKQNIEQIRRERLPKELGYALQHQLRMVIKR
MNTQSPPSPHDPHGAAALPFRLWTAEERRASLDTALREWRDGEDVWVYGYGSLIWRPDFDFVERRLATLHGHHRALCLWSRVNRGTPECPGLVFGLDRGGSCRGVVYRLAGRQVPDYFPALWDREMSTGAYLPRWLRCATEHGPVNALVFIMNRANPAYIRALPEPELLAIVRRASGRYGPCTEYVVQTAQALRQAGIRDARLEQIARQLEADVHPLGVLEHHHHHH
MLNKLSLLLKDAGISLTDHQKNQLIAYVNMLHKWNKAYNLTSVRDPNEMLVRHILDSIVVAPYLQGERFIDVGTGPGLPGIPLSIVRPEAHFTLLDSLGKRVRFLRQVQHELKLENIEPVQSRVEEFPSEPPFDGVISRAFASLNDMVSWCHHLPGEQGRFYALKGQMPEDEIALLPEEYQVESVVKLQVPALDGERHLVVIKANKILEHHHHHH
MDELFEEHLEIAKALFAQRLPYWCDVFLRPADQAFNAYLNARGQASTYLVLEGFDPVYVPRGCDLDAVRATARARARLREAGLGEDALPVLL

Soluble on expression in E. coli, soluble:
MTHQKRLSVPKSWKVGRKGNKWISTTRPGPHSQARSLPLGLIIRDVLKLVDNNREGKRILSEGKVLVDGISRKDLRFPVGLFDVITLPLVNEAYRMLQDEKGRLVLYKLNETNVNKLCRINNKTTVKGGKIQLNLNDGTNILGSNDYGTKDSLILSIPDKHVVKHLKFEVGNLAMVIGGQHSGETGKIMEIREVKSSRHNTVMISGETDFETIEDYVIVIGEDKPEIRLGGEISELEHHHHHH
MNINIVTIGKLKEKYLKQGIEEYTKRLSAYAKIDIIELPDEKAPENLSDQDMKIIKDKEGDRILSKISPDAHVIALAIEGKMKTSEELADTIDKLATYGKSKVTFVIGGSLGLSDTVMKRADEKLSFSKMTFPHQLMRLILVEQIYRAFRINRGEPYHKLEHHHHHH
MGEQPIFSTRAHVFQIDPNTKKNWVPTSKHAVTVSYFYDSTRNVYRIISLDGSKAIINSTITPNMTFTKTSQKFGQWADSRANTVYGLGFSSEHHLSKFAEKFQEFKEAAR
